# Oligonucleotides are written 5' to 3', each unit as a sugar letter and its base; * is a phosphorothioate linkage, no mark a phosphodiester; rarer units and linkages stand in square brackets, end groups in braces. Plain capitals give the bases only. m = 2'-O-methyl; r = 2'-OH (RNA)
# B1: G015995: guide targeting B2M (SEQ ID NO: 711) (nucleic acid)
# guide: mU*mU*mA*rCrCrCrCrArCrUrUrArArCrUrArUrCrUrUrGrUrUrUrUrArGrAmGmCmUmAmGmAmAmAmUmAmGmCrArArGrUrUrArArArArUrArArGrGrCrUrArGrUrCrCrGrUrUrArUrCrAmAmCmUmUmGmAmAmAmAmAmGmUmGmGmCmAmCmCmGmAmGmUmCmGmGmUmGmCmU*mU*mU*mU
# Columns and labels:
# [1] = system: B2M, TRAC, TRBC1/2, CIITA; assay: NGS editing profile of T cells with BC22n or Cas9 mRNA, single or four guides, LNP titration, Example 16A; assay type: cell-based, human; settings: LNP;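 further: activated T cells exposed to LNPs 72 h after activation, kept at 37 °C, harvested on day 10 post activation, editing measured by NGS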
# Method: Cells were expanded in T cell basal media for 72 hours prior to LNP transfection.
# LNPs were mixed to fixed total mRNA weight ratios of 6:3:2 for editor mRNA, guide RNA, and UGI mRNA respectively as described in Table 12. […] LNP mixtures were incubated for 5 minutes at 37° C. in T cell basal media substituting 6% cynomolgus monkey serum (Bioreclamation IVT, Cat. CYN220760) for fetal bovine serum.
# T cells were incubated at 37° C. with 5% CO2 for the duration of the experiment.
# In total, T cells were exposed to 6 different LNPs simultaneously (editor mRNA, UGI mRNA, 4 guides).
# [2] = system: B2M, CD3, MHC II; assay: Flow cytometry of antigen negative T cells (B2M, CD3, MHC II) after BC22n or Cas9 editing, Example 16A; assay type: cell-based, human
# From the text: Cells were subsequently washed, processed on a Cytoflex instrument (Beckman Coulter) and analyzed using the FlowJo software package. T cells were gated based on size, shape, viability, and antigen expression.
# [3] = multiple guide delivery (four guides simultaneously), locus of the guide assayed, editor BC22n, total RNA 8.6 ng
# [4] = multiple guide delivery (four guides simultaneously), locus of the guide assayed, editor BC22n, total RNA 17.2 ng
# [5] = multiple guide delivery (four guides simultaneously), locus of the guide assayed, editor BC22n, total RNA 34.4 ng
# [6] = multiple guide delivery (four guides simultaneously), locus of the guide assayed, editor BC22n, total RNA 68.8 ng
# [7] = multiple guide delivery (four guides simultaneously), locus of the guide assayed, editor BC22n, total RNA 137.5 ng
# [8] = multiple guide delivery (four guides simultaneously), locus of the guide assayed, editor BC22n, total RNA 275.0 ng
# [9] = multiple guide delivery (four guides simultaneously), locus of the guide assayed, editor BC22n, total RNA 550.0 ng
# [10] = multiple guide delivery (four guides simultaneously), locus of the guide assayed, editor Cas9, total RNA 8.6 ng
# [11] = multiple guide delivery (four guides simultaneously), locus of the guide assayed, editor Cas9, total RNA 17.2 ng
# [12] = multiple guide delivery (four guides simultaneously), locus of the guide assayed, editor Cas9, total RNA 34.4 ng
# [13] = multiple guide delivery (four guides simultaneously), locus of the guide assayed, editor Cas9, total RNA 68.8 ng
# [14] = multiple guide delivery (four guides simultaneously), locus of the guide assayed, editor Cas9, total RNA 137.5 ng
# [15] = multiple guide delivery (four guides simultaneously), locus of the guide assayed, editor Cas9, total RNA 275.0 ng
# [16] = multiple guide delivery (four guides simultaneously), locus of the guide assayed, editor Cas9, total RNA 550.0 ng
# [17] = single guide delivery, editor BC22n, total RNA 8.6 ng
# [18] = single guide delivery, editor BC22n, total RNA 17.2 ng
# [19] = single guide delivery, editor BC22n, total RNA 34.4 ng
# [20] = single guide delivery, editor BC22n, total RNA 68.8 ng
# [21] = single guide delivery, editor BC22n, total RNA 137.5 ng
# [22] = single guide delivery, editor BC22n, total RNA 275.0 ng
# [23] = single guide delivery, editor BC22n, total RNA 550.0 ng
# [24] = single guide delivery, editor Cas9, total RNA 8.6 ng
# [25] = single guide delivery, editor Cas9, total RNA 17.2 ng
# [26] = single guide delivery, editor Cas9, total RNA 34.4 ng
# [27] = single guide delivery, editor Cas9, total RNA 68.8 ng
# [28] = single guide delivery, editor Cas9, total RNA 137.5 ng
# [29] = single guide delivery, editor Cas9, total RNA 275.0 ng
# [30] = single guide delivery, editor Cas9, total RNA 550.0 ng
molecule,measurement,setting,value
B1,C-to-A/G % mean,[1]; [3],3.8%
same,C-to-T % mean,[1]; [3],27.3%
same,Indel % mean,[1]; [3],2.6%
same,C-to-A/G % mean,[1]; [4],4.1%
same,C-to-T % mean,[1]; [4],47.2%
same,Indel % mean,[1]; [4],3.0%
same,C-to-A/G % mean,[1]; [5],3.9%
same,C-to-T % mean,[1]; [5],61.2%
same,Indel % mean,[1]; [5],2.6%
same,C-to-A/G % mean,[1]; [6],2.9%
same,C-to-T % mean,[1]; [6],81.4%
same,Indel % mean,[1]; [6],1.4%
same,C-to-A/G % mean,[1]; [7],2.6%
same,C-to-T % mean,[1]; [7],90.0%
same,Indel % mean,[1]; [7],1.3%
same,C-to-A/G % mean,[1]; [8],2.2%
same,C-to-T % mean,[1]; [8],94.7%
same,Indel % mean,[1]; [8],0.8%
same,C-to-A/G % mean,[1]; [9],2.9%
same,C-to-T % mean,[1]; [9],95.9%
same,Indel % mean,[1]; [9],0.4%
same,C-to-A/G % mean,[1]; [10],1.4%
same,C-to-T % mean,[1]; [10],0.3%
same,Indel % mean,[1]; [10],5.0%
same,C-to-A/G % mean,[1]; [11],1.3%
same,C-to-T % mean,[1]; [11],0.3%
same,Indel % mean,[1]; [11],10.5%
same,C-to-A/G % mean,[1]; [12],1.1%
same,C-to-T % mean,[1]; [12],0.3%
same,Indel % mean,[1]; [12],19.3%
same,C-to-A/G % mean,[1]; [13],0.9%
same,C-to-T % mean,[1]; [13],0.3%
same,Indel % mean,[1]; [13],34.4%
same,C-to-A/G % mean,[1]; [14],0.7%
same,C-to-T % mean,[1]; [14],0.2%
same,Indel % mean,[1]; [14],51.1%
same,C-to-A/G % mean,[1]; [15],0.5%
same,C-to-T % mean,[1]; [15],0.2%
same,Indel % mean,[1]; [15],68.0%
same,C-to-A/G % mean,[1]; [16],0.4%
same,C-to-T % mean,[1]; [16],0.3%
same,Indel % mean,[1]; [16],76.7%
same,C-to-A/G % mean,[1]; [17],7.7%
same,C-to-T % mean,[1]; [17],49.5%
same,Indel % mean,[1]; [17],6.0%
same,C-to-A/G % mean,[1]; [18],6.7%
same,C-to-T % mean,[1]; [18],68.5%
same,Indel % mean,[1]; [18],4.3%
same,C-to-A/G % mean,[1]; [19],5.7%
same,C-to-T % mean,[1]; [19],79.0%
same,Indel % mean,[1]; [19],3.8%
same,C-to-A/G % mean,[1]; [20],4.6%
same,C-to-T % mean,[1]; [20],88.2%
same,Indel % mean,[1]; [20],2.5%
same,C-to-A/G % mean,[1]; [21],4.1%
same,C-to-T % mean,[1]; [21],90.6%
same,Indel % mean,[1]; [21],2.2%
same,C-to-A/G % mean,[1]; [22],3.7%
same,C-to-T % mean,[1]; [22],92.6%
same,Indel % mean,[1]; [22],2.2%
same,C-to-A/G % mean,[1]; [23],2.8%
same,C-to-T % mean,[1]; [23],95.2%
same,Indel % mean,[1]; [23],1.6%
same,C-to-A/G % mean,[1]; [24],1.2%
same,C-to-T % mean,[1]; [24],0.3%
same,Indel % mean,[1]; [24],23.7%
same,C-to-A/G % mean,[1]; [25],0.9%
same,C-to-T % mean,[1]; [25],0.3%
same,Indel % mean,[1]; [25],41.1%
same,C-to-A/G % mean,[1]; [26],0.6%
same,C-to-T % mean,[1]; [26],0.3%
same,Indel % mean,[1]; [26],59.4%
same,C-to-A/G % mean,[1]; [27],0.4%
same,C-to-T % mean,[1]; [27],0.2%
same,Indel % mean,[1]; [27],76.8%
same,C-to-A/G % mean,[1]; [28],0.2%
same,C-to-T % mean,[1]; [28],0.1%
same,Indel % mean,[1]; [28],88.2%
same,C-to-A/G % mean,[1]; [29],0.1%
same,C-to-T % mean,[1]; [29],0.1%
same,Indel % mean,[1]; [29],95.1%
same,C-to-A/G % mean,[1]; [30],0.1%
same,C-to-T % mean,[1]; [30],0.1%
same,Indel % mean,[1]; [30],97.5%
same,"percent cells negative for antigen, B2M neg, Mean %","[2]; editor BC22n, total RNA 8.6 ng",44.0%
same,"percent cells negative for antigen, B2M neg, Mean %","[2]; editor BC22n, total RNA 17.2 ng",60.8%
same,"percent cells negative for antigen, B2M neg, Mean %","[2]; editor BC22n, total RNA 34.4 ng",75.7%
same,"percent cells negative for antigen, B2M neg, Mean %","[2]; editor BC22n, total RNA 68.8 ng",83.9%
same,"percent cells negative for antigen, B2M neg, Mean %","[2]; editor BC22n, total RNA 137.5 ng",91.2%
same,"percent cells negative for antigen, B2M neg, Mean %","[2]; editor BC22n, total RNA 275.0 ng",94.4%
same,"percent cells negative for antigen, B2M neg, Mean %","[2]; editor BC22n, total RNA 550.0 ng",95.7%
same,"percent cells negative for antigen, B2M neg, Mean %","[2]; editor Cas9, total RNA 8.6 ng",13.9%
same,"percent cells negative for antigen, B2M neg, Mean %","[2]; editor Cas9, total RNA 17.2 ng",30.7%
same,"percent cells negative for antigen, B2M neg, Mean %","[2]; editor Cas9, total RNA 34.4 ng",53.4%
same,"percent cells negative for antigen, B2M neg, Mean %","[2]; editor Cas9, total RNA 68.8 ng",68.7%
same,"percent cells negative for antigen, B2M neg, Mean %","[2]; editor Cas9, total RNA 137.5 ng",82.1%
same,"percent cells negative for antigen, B2M neg, Mean %","[2]; editor Cas9, total RNA 275.0 ng",89.3%
same,"percent cells negative for antigen, B2M neg, Mean %","[2]; editor Cas9, total RNA 550.0 ng",91.3%
